For the test, the target named is CD3ε on wildtype primary human T cells (human) (UniProt P07766). Nature of the test: cell-based or functional assay.

Chain of CAR4 (CD3ε.CD8α.4-1BB.CD3ζ), myc-tagged second-generation CAR with the OKT3 scFv, expressed on NK-92 cells (chain): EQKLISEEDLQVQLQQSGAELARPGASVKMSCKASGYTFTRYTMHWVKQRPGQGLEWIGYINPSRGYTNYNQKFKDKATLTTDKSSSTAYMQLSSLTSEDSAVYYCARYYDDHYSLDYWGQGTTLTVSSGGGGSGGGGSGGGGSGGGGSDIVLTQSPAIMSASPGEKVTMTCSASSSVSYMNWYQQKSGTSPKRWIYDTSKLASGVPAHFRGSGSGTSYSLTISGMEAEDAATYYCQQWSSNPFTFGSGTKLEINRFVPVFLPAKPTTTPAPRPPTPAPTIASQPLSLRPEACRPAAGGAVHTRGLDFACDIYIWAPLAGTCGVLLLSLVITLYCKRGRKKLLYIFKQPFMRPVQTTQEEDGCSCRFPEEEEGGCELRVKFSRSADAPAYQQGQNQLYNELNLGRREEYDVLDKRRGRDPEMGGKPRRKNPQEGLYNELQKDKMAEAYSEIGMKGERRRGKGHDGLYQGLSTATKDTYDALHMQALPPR

Substance “CAR4 (CD3ε.CD8α.4-1BB.CD3ζ), myc-tagged second-generation CAR with the OKT3 scFv, expressed on NK-92 cells” had an average residual TCR+ T cells after co-culture in G-Rex, regimen 1:2A of 0.026%; an average residual TCR+ T cells after co-culture in G-Rex, regimen 1:2B of 0.007%; a removal of residual wildtype T cells, 2 co-culture cycles greater than 99.9%; a removal of residual wildtype T cells, single administration of 98.6%.

These data come from US20260130994A1.
